Experimental data: the supplement of paper PMC10724198
± gives the standard deviation of the averaged measurements.

tested on: Saccharomyces cerevisiae; assay: protein stability index of tFT-peptide fusion (C-terminal peptide) (PSI (0-1 scale)); higher = more stable (slower turnover); conditions: genetic background: wild type; temperature: 30 C
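Further: PSI is a weighted mean of sequencing reads over stability bins, variants kept only with over 10 reads, mCherry proximal and sfGFP distal, peptide attached via GGGS linker.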

Sequence	protein stability index
YEYPRVTFSPQT	0.7878 ± 0.005
CGRPRGGEPGGA	0.715 ± 0.078
ENQGQSYVTMRY	0.725 ± 0.046
PRACPSSPASSL	0.722 ± 0.024
SYHRAAPFQSCD	0.8 ± 0.12
SPLTSSSLPPRT	0.691 ± 0.032
PPLGITHPSFPS	0.787 ± 0.025
TPLGLSVSSPPT	0.661 ± 0.14
NMRQGPLAGLAG	0.748 ± 0.072
VGSRGWGRWGVA	0.693 ± 0.047
QKINKRPTIRQI	0.603 ± 0.063
NYCKGFLLRANI	0.645 ± 0.071
IKKKNQKHKKKN	0.7114 ± 0.0029
HATPPAPHSVSS	0.774 ± 0.036
ELSARVCLGSLF	0.676 ± 0.015
GVIFPQFDPCAL	0.788 ± 0.056
SSPHRFLCLPPP	0.639 ± 0.061
GKKGKEKGEEKR	0.716 ± 0.028
LPSLFSPPLFPL	0.702 ± 0.0017
FAVLGGGGGGGW	0.711 ± 0.0097
TIPPSTRAITPV	0.652 ± 0.046
SLRSSRSRIKKG	0.624 ± 0.086
PLPLASVTPPYL	0.669 ± 0.0067
DSSGATGLLYML	0.746 ± 0.022
APSPPPRISAWL	0.749 ± 0.045

Sequence	protein stability index
RSALVPPRLPAS	0.675 ± 0.075
RNKKDIKIQIKR	0.68 ± 0.049
SASPEGTQRSPW	0.761 ± 0.14
LGLMSSCFSMWC	0.657 ± 0.15
LYLRNFGSPFLV	0.65 ± 0.024
PGLGVGATRCVH	0.734 ± 0.018
RPRCAPSPPLPP	0.691 ± 0.047
SFARMTAIPGLR	0.661 ± 0.029
AYSPLFPPLLSL	0.649 ± 0.045
SFRFCSNRFTRL	0.699 ± 0.056
GCCWGCRIGEAV	0.6557 ± 0.0052
RNLHVSMGKCSP	0.722 ± 0.21
PPPPPFSPLFLP	0.698 ± 0.12
GSAFIRFRSSFG	0.638 ± 0.022
VHFECFLVPFLL	0.525 ± 0.028
TPQTTQIKNEKH	0.789 ± 0.14
YCAMVSVGVVGG	0.534 ± 0.0076
RKLKQGIVSKKK	0.66 ± 0.052
NGRPGPAEPELW	0.692 ± 0.043
GVLLGSKFCQQL	0.641 ± 0.093
LPPHSAPLAHGP	0.714 ± 0.065
SLSGPRCFLHSP	0.681 ± 0.039
DLCLRSTLPLFL	0.585 ± 0.016
LGGVGSSGDVVA	0.648 ± 0.017
PVSALHLSLSCP	0.698 ± 0.028

Sequence	protein stability index
CSGEGDQWLGVR	0.7139 ± 0.0028
LYRILQAPRSSP	0.703 ± 0.079
AVGVCGGGWWWA	0.792 ± 0.098
FGSPFPASRFTT	0.752 ± 0.082
GGGVLLRGGSGP	0.716 ± 0.053
PPPPPPPPPLPR	0.657 ± 0.039
HDETKAYLAPGQ	0.697 ± 0.037
IVLGGPAWPVAA	0.613 ± 0.034
HVDSLPRPLLPS	0.716 ± 0.056
PAFPSPFPTSSL	0.647 ± 0.099
SGGSGGSCMRYV	0.691 ± 0.025
FFYGLHSHCAIP	0.717 ± 0.081
PGNYVLSDPPLM	0.715 ± 0.033
HWRRGGRSGGDR	0.71 ± 0.033
RKVYHSTRNTRK	0.702 ± 0.11
CVRRKYIGGGEG	0.673 ± 0.025
GLRLLVLPDSWS	0.682 ± 0.056
AGGGNGGGGGEK	0.663 ± 0.019
LSPLPPDLPDLP	0.699 ± 0.12
TFVSPPPHPLRP	0.636 ± 0.055
VGVGGVGRRAKI	0.687 ± 0.075
ILWVSPFFFSLD	0.699 ± 0.064
MEAAARRMIKRK	0.6 ± 0.04
RVSPGGLCALSV	0.701 ± 0.051
LGRCSTLLYCGP	0.669 ± 0.03

Sequence	protein stability index
WASKVGSYICAE	0.671 ± 0.02
GSNPYNRHLINI	0.693 ± 0.02
RPTSPCPNHRLE	0.667 ± 0.097
KTNKKTIVKSQT	0.674 ± 0.046
VVGRVTGGGSDG	0.646 ± 0.037
SPPGYPGNPSPL	0.662 ± 0.021
AVAPPISTLLPV	0.743 ± 0.04
WQCRAPRFEKGV	0.696 ± 0.08
LGGAVLSRFGAR	0.738 ± 0.047
PPPLPSPPAFRP	0.635 ± 0.045
EPNKGTNMKVND	0.705 ± 0.048
QAANPWQRPFGW	0.689 ± 0.087
QPSRQTIPWDTV	0.738 ± 0.037
RPASVHDLSLQC	0.681 ± 0.033
FFLLLCSSCFGV	0.583 ± 0.021
VVTSVLCGRVHL	0.682 ± 0.0069
PFPPPPPPPRSP	0.728 ± 0.047
SLVLPPRPFPPF	0.746 ± 0.058
ALWGHSWHSSLR	0.713 ± 0.015
ILVAPAYYCWKV	0.642 ± 0.045
LLPRSPLLPPLH	0.719 ± 0.0048
WCFVGLVNTCRI	0.617 ± 0.025
PYPVTLSRPTPT	0.611 ± 0.15
LIPLVFAPSLVL	0.769 ± 0.093
LGKAVSDMDETH	0.687 ± 0.026

Sequence	protein stability index
VSSVTFSLSFAL	0.813 ± 0.082
LCPSLSSPTSAT	0.659 ± 0.029
HGVQEFRVAPEF	0.738 ± 0.035
LLDGAGGGVGEG	0.738 ± 0.033
RLDRARTPPAST	0.779 ± 0.05
KKKKKKKTKKRK	0.717 ± 0.029
VAVWWVQCAGGV	0.66131 ± 0.00034
GSSAVGWGGVWW	0.796 ± 0.11
KGEGRERSRSRK	0.768 ± 0.034
RCGLVGILCSSI	0.5632 ± 0.004
WQGLGGARGCML	0.691 ± 0.066
PPPPLPPTPPPL	0.673 ± 0.025
CFLERLAFPGLY	0.633 ± 0.011
ESKERKTRKLKK	0.677 ± 0.048
KCAIKKQEQTSR	0.642 ± 0.02
SPPLPPPARLPA	0.615 ± 0.019
LLSVFPLHPGSP	0.73 ± 0.047
NDFFVVFSVGEC	0.613 ± 0.041
TIGPSYLLPDSF	0.784 ± 0.018
QKEETGGLGGGK	0.6609 ± 0.0025
SCPSRLFLSFRG	0.683 ± 0.034
PERFHLVCWVGR	0.712 ± 0.083
YSQSRPYFRIPG	0.647 ± 0.029
LNLISGVRFSLY	0.675 ± 0.043
PHPATSPVARPP	0.678 ± 0.014

Sequence	protein stability index
LALEVSNLSCSV	0.696 ± 0.022
RPSLSRSSLLSP	0.701 ± 0.032
VSVGRSSARVIG	0.725 ± 0.02
CLCRAAGARRCG	0.694 ± 0.03
GGGGGGVRVARW	0.687 ± 0.07
NQEIGLRNQGRV	0.69 ± 0.033
VPPLVSSSSLLL	0.636 ± 0.082
IRPDLWYGLAVV	0.59 ± 0.023
QIESNLGYWGIG	0.73819 ± 0.00032
GVGGGRVLLLRL	0.614 ± 0.042
PPPRRAPLSPSV	0.669 ± 0.042
VVAAGGASDVGG	0.712 ± 0.056
RRPFPSSVVFPH	0.702 ± 0.023
RRGWRRGGLGNG	0.683 ± 0.052
PPNLYRGVQGPA	0.682 ± 0.0099
EGMENECDLRIK	0.74 ± 0.066
FITLHGLLSRPC	0.626 ± 0.077
SRKIRTTLQESK	0.7219 ± 0.0071
RGSGEVVLFGVG	0.671 ± 0.057
FSAPLPPARSPS	0.798 ± 0.11
EKGWFDLGGCQV	0.723 ± 0.035
